The text below walks through data of patent US20150203575A1 (Genentech, published 2015).

Assay [1] deals with T1, human COLEC12 expressed on cells (human, UniProt Q5KU26 1-742).
T1 construct: also called hCOLEC12; C-terminal his tagged hCOLEC12
Kind of assay: flow cytometry, transfected 293T cells. A general note: In flow cytometry, cells or beads pass a laser one at a time.

For assay [2], the target named is T2, MAG expressed on cells (human, UniProt P20916 20-626).
T2 construct: Clone of the Origene human cDNA library; also called Myelin associated glycoprotein; SIGLEC4A
T2 sequence: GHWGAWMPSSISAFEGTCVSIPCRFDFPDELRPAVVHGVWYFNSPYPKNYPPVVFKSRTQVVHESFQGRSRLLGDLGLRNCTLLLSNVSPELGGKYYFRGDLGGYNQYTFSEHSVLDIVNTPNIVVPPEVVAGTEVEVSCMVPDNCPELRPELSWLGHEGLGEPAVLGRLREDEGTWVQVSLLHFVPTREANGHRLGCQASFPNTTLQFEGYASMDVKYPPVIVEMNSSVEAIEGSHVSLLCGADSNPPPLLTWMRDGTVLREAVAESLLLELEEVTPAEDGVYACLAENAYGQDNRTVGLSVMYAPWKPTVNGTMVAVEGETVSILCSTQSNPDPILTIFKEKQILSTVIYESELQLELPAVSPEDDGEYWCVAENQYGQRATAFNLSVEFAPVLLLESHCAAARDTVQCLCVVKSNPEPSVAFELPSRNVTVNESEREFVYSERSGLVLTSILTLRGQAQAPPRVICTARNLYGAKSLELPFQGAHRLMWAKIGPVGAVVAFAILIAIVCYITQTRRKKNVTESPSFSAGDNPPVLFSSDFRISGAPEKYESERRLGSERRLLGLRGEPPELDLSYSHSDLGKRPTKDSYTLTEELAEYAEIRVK
Kind of assay: flow cytometry, transfected 293T cells.

For assay [3], the target named is T3, LRRTM4 expressed on cells (human, UniProt Q86VH4 31-590).
T3 construct: Clone of the Origene human cDNA library; also called Leucine rich repeat transmembrane neuronal 4
Kind of assay: flow cytometry, transfected 293T cells.

Assay [4] addresses T4, BR3 expressed on cells (human, UniProt Q96RJ3 1-184).
T4 construct: Clone of the Origene human cDNA library
T4 sequence: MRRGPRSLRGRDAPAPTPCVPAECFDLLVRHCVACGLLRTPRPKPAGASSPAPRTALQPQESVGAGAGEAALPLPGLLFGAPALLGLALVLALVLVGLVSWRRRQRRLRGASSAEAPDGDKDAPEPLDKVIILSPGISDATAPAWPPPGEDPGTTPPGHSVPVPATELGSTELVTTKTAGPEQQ
Kind of assay: flow cytometry, transfected 293T cells, 50 µg/ml.

For assay [5], the target named is T5, FceRII expressed on cells (human, UniProt P06734 1-321).
T5 construct: Clone of the Origene human cDNA library; also called FcRII
T5 sequence: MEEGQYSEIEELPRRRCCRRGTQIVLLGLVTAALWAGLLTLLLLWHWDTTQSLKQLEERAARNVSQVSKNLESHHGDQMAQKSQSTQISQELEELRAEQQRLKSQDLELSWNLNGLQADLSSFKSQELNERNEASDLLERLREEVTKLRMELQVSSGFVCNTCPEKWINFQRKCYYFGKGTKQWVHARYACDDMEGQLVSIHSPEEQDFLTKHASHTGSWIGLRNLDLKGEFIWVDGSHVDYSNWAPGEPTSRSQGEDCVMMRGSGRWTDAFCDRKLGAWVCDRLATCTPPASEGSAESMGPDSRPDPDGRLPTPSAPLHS
Kind of assay: flow cytometry, transfected 293T cells, 50 µg/ml.

Assay [6] addresses T6, CLEC4G expressed on cells (human, UniProt Q6UXB4 1-293).
T6 construct: Clone of the Origene human cDNA library; also called C type lectin superfamily 4 member G
T6 sequence: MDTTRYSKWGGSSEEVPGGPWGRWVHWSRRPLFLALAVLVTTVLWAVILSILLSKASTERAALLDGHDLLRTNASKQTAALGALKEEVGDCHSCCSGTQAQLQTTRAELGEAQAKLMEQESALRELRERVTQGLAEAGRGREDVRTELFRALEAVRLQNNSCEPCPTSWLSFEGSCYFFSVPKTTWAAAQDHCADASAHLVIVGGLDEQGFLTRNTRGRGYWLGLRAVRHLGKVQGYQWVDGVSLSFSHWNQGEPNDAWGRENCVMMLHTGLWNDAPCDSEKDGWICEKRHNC
Kind of assay: flow cytometry, transfected 293T cells, 50 µg/ml.

Assay [7] concerns the target T7, IL-2Ra expressed on cells (human, UniProt P01589 22-272).
T7 construct: Clone of the Origene human cDNA library; also called Interleukin 2 receptor alpha
T7 sequence: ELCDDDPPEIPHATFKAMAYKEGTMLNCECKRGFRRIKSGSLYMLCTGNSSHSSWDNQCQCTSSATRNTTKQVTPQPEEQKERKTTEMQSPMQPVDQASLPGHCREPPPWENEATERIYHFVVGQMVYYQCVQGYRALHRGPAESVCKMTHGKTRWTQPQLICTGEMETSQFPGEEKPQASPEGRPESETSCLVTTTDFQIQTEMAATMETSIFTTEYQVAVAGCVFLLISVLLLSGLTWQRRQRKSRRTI
Kind of assay: flow cytometry, transfected 293T cells.

For assay [8], the target named is T8, PSS8 expressed on cells (human, UniProt Q16651 30-343).
T8 construct: Clone of the Origene human cDNA library; also called Protease serine 8; prostasin
Kind of assay: flow cytometry, transfected 293T cells.

Assay [9] concerns the target T5, FceRII expressed on cells. Kind of assay: flow cytometry, transfected 293T cells, 50 µg/ml. This is another data set of the same source.
In assay [10] the target is T2, MAG expressed on cells. Kind of assay: flow cytometry, transfected 293T cells, 50 µg/ml.
In assay [11] the target is T2, MAG expressed on cells. Kind of assay: flow cytometry, transfected 293T cells, 50 µg/ml. The source holds these as a separate data set.
Assay [12] deals with T4, BR3 expressed on cells. Kind of assay: flow cytometry, transfected 293T cells, 2 µg/ml.
Assay [13] concerns the target T8, PSS8 expressed on cells. Kind of assay: flow cytometry, transfected 293T cells, 2 µg/ml.
Assay [14] has as its target T6, CLEC4G expressed on cells. Kind of assay: flow cytometry, transfected 293T cells.
In assay [15] the target is T9, mCD99-Fc (mouse, UniProt Q8VCN6 29-137, limits assumed, three O-glycans NeuAc1-2Hex1HexNAc1).
T9 construct: also called mouse CD99-Fc; mCD99 (SPR analyte); not shown: Fc
T9 sequence (looked up): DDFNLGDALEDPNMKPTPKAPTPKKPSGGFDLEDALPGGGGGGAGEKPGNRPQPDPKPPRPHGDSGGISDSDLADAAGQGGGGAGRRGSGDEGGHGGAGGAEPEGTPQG
Kind of assay: SPR, hPILRα R126A-Fc immobilized, response difference. (In general: SPR reads the build-up and loss of mass on a sensor chip optically.)

The target in assay [16] is T10, hCOLEC12-his (human, UniProt Q5KU26 59-742, sialylated O-glycans and N-glycans).
T10 construct: Whole entry named; also called human COLEC12-his; hCOLEC12 (SPR); not shown: his tag
Described as above.

Assay [17] has as its target T7, IL-2Ra expressed on cells. Kind of assay: flow cytometry, transfected 293T cells. This is another data set of the same source.
Assay [18] addresses T4, BR3 expressed on cells. Kind of assay: flow cytometry, transfected 293T cells.
For assay [19], the target named is T8, PSS8 expressed on cells. Kind of assay: flow cytometry, transfected 293T cells. This is another data set of the same source.
Assay [20] deals with T2, MAG expressed on cells. Kind of assay: flow cytometry, transfected 293T cells, 2 µg/ml.
For assay [21], the target named is T3, LRRTM4 expressed on cells. Kind of assay: flow cytometry, transfected 293T cells, 2 µg/ml.
Assay [22] has as its target T11, human NPDC1 expressed on cells (human, UniProt Q9NQX5 35-325).
T11 construct: also called hNPDC1; hNPCD1
T11 sequence: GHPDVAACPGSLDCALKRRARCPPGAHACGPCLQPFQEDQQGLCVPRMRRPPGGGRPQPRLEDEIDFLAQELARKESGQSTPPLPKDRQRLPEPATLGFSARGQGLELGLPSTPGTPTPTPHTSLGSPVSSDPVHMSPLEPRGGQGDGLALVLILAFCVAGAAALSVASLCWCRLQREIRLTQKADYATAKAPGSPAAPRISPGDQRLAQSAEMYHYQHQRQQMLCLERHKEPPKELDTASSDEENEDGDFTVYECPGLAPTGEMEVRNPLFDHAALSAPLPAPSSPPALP
Kind of assay: flow cytometry, transfected 293T cells.

Assay [23] has as its target T12, mouse CD99 expressed on 293T cells (mouse, UniProt Q8VCN6 29-175, sialylated O-glycans at Thr-45 and Thr-50 (cited as relevant for PILRα recognition)).
T12 construct: whole, on cells; also called mCD99; mCD99 transfectants
T12 sequence (looked up): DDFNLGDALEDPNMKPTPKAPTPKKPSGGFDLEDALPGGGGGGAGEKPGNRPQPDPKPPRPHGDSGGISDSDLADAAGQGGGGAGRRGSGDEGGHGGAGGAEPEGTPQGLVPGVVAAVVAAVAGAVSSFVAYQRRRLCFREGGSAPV
Kind of assay: flow cytometry, transfected 293T cells.

The target in assay [24] is T1, human COLEC12 expressed on cells. Kind of assay: flow cytometry, transfected 293T cells, ligand-expressing cells gated.
Assay [25] deals with T13, HSV1 glycoprotein B expressed on 293T cells (herpes simplex virus type 1, UniProt P10211 31-904).
T13 construct: whole, on cells; also called HSV-1 gB; HSV1 gB
The assay is described as above.

Assay [26] addresses T3, LRRTM4 expressed on cells. Kind of assay: flow cytometry, transfected 293T cells. The source holds these as a separate data set.

Read-outs that look alike come from different tables or passages of the source.

T8 sequence (Q16651 30-343 limits assumed): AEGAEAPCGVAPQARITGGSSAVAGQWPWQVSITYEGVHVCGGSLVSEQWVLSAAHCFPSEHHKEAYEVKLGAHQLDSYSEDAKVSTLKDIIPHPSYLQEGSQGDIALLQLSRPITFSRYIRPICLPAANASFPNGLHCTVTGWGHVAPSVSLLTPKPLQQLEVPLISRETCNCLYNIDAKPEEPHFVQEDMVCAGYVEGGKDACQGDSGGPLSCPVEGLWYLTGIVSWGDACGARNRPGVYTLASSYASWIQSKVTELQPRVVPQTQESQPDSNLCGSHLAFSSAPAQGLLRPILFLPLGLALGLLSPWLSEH
T3 sequence (Q86VH4 31-590 limits assumed): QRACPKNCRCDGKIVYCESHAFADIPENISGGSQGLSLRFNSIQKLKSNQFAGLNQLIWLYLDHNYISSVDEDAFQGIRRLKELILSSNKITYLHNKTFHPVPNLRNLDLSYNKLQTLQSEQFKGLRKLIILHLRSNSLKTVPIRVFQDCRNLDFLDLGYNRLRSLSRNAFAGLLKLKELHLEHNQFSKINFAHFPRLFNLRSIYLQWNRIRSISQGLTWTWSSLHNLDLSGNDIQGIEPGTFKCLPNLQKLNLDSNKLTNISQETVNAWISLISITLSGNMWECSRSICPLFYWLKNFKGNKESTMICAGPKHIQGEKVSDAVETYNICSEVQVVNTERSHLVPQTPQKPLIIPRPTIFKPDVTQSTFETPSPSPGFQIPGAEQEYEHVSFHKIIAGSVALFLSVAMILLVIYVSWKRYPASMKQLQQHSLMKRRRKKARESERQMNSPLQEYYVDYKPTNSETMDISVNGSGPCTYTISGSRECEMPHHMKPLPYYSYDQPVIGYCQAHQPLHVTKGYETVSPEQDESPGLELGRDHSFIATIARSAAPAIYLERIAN
T1 sequence (Q5KU26 whole entry S522P/G606S): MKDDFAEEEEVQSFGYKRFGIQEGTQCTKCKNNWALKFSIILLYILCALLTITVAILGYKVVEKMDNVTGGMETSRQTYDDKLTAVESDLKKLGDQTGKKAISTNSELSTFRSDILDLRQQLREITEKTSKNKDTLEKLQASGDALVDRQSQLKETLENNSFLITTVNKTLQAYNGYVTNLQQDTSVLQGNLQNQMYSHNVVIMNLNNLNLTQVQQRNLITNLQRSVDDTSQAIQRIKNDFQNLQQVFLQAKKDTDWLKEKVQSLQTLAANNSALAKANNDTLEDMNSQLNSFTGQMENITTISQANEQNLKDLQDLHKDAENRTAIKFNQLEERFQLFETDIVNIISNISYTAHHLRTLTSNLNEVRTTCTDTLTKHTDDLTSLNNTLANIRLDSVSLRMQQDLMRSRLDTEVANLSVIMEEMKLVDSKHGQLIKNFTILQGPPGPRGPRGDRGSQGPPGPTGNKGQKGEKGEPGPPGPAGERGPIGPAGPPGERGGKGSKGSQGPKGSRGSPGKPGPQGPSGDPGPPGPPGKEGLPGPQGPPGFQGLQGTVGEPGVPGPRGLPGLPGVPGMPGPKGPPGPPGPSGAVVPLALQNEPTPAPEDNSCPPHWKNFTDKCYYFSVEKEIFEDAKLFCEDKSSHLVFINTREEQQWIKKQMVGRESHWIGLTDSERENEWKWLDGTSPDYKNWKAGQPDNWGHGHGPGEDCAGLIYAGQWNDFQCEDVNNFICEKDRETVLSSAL
T10 sequence (Q5KU26 59-742 S522P/G606S limits assumed): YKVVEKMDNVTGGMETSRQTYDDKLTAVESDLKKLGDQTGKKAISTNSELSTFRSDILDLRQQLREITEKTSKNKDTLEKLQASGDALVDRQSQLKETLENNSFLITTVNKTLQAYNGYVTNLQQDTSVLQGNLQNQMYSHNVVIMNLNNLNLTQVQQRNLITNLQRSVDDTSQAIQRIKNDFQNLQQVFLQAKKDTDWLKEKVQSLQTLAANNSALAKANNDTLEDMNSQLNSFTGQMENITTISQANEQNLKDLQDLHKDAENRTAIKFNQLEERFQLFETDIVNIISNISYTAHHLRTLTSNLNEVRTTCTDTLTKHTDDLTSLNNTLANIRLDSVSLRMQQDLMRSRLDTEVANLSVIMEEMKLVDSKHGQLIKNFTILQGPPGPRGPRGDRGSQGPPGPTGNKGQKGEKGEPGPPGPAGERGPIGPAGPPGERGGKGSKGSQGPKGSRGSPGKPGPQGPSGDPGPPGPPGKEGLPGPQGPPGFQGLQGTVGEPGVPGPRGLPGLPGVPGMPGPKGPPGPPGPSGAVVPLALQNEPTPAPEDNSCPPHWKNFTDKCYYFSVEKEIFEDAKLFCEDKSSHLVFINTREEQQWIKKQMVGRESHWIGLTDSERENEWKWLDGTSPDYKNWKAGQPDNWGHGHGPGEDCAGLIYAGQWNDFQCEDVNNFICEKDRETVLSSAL

B1: mPILRβ (receptor)
chain: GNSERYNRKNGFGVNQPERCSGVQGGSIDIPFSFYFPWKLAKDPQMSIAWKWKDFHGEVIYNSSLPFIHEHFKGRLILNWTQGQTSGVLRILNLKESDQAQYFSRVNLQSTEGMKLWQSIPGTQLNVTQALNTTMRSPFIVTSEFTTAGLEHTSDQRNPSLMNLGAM
notes: also called Mouse PILR-beta
Take B1: the binding result in assay [1], in [2], in [3], in assay [7] and in assay [8] was “no binding (tested: 50 µg/ml)” in each case. In addition, the “% cells in lower right quadrant” value in assay [4] is 1.85%; in assay [5], 3.98%; in assay [6] it was 27.4%; in assay [9], 3.98%; in [10], 0.083%.

B2: hPILRαR126A-Fc (Fc fusion)
chain: QPSGSTGSGPSYLYGVTQPKHLSASMGGSVEIPFSFYYPWELATAPDVRISWRRGHFHRQSFYSTRPPSIHKDYVNRLFLNWTEGQKSGFLRISNLQKQDQSVYFCAVELDTRSSGRQQWQSIEGTKLSITQAVTTTTQRPSSMTTTWRLSSTTTTTGLRVTQGKRRSDSWHISLETA
notes: Arg mutant of hPILRα-Fc; also called hPILRα R126-Fc; mutant hPILRα; not shown: Fc of mouse IgG2a (PILRα-mIgG2a, called PILRα-Fc)
On to B2, for which the “% cells in lower right quadrant” value worked out at 12.5% in assay [11]; 0.47% in assay [12]; 0.012% in assay [13]; 0.17% in assay [20]; 0.11% in [21]. Moreover, the binding result in assay [14] is “no binding (tested: 50 µg/ml)”; in [15], “no binding (tested: 1 µM)”; in [16] it was “no binding (tested: 1 µM)”; in [17], “no binding (tested: 50 µg/ml)”; in assay [18], “no binding (tested: 50 µg/ml)”; in [19] it was “no binding (tested: 50 µg/ml)”. The binding result was “no binding (tested: 50 µg/ml)” in assay [22]; “no binding (tested: 50 µg/ml)” in [23]; “no binding” in assay [24]; “no binding” in assay [25]; “no binding (tested: 50 µg/ml)” in assay [26].
